Sequences and labels used below:
B1: Flag-USP25 (2-1055) (enzyme, human, UniProt Q9UHP3 2-1055, looked up)
chain: TVEQNVLQQSAAQKHQQTFLNQLREITGINDTQILQQALKDSNGNLELAVAFLTAKNAKTPQQEETTYYQTALPGNDRYISVGSQADTNVIDLTGDDKDDLQRAIALSLAESNRAFRETGITDEEQAISRVLEASIAENKACLKRTPTEVWRDSRNPYDRKRQDKAPVGLKNVGNTCWFSAVIQSLFNLLEFRRLVLNYKPPSNAQDLPRNQKEHRNLPFMRELRYLFALLVGTKRKYVDPSRAVEILKDAFKSNDSQQQDVSEFTHKLLDWLEDAFQMKAEEETDEEKPKNPMVELFYGRFLAVGVLEGKKFENTEMFGQYPLQVNGFKDLHECLEAAMIEGEIESLHSENSGKSGQEHWFTELPPVLTFELSRFEFNQALGRPEKIHNKLEFPQVLYLDRYMHRNREITRIKREEIKRLKDYLTVLQQRLERYLSYGSGPKRFPLVDVLQYALEFASSKPVCTSPVDDIDASSPPSGSIPSQTLPSTTEQQGALSSELPSTSPSSVAAISSRSVIHKPFTQSRIPPDLPMHPAPRHITEEELSVLESCLHRWRTEIENDTRDLQESISRIHRTIELMYSDKSMIQVPYRLHAVLVHEGQANAGHYWAYIFDHRESRWMKYNDIAVTKSSWEELVRDSFGGYRNASAYCLMYINDKAQFLIQEEFNKETGQPLVGIETLPPDLRDFVEEDNQRFEKELEEWDAQLAQKALQEKLLASQKLRESETSVTTAQAAGDPEYLEQPSRSDFSKHLKEETIQIITKASHEHEDKSPETVLQSAIKLEYARLVKLAQEDTPPETDYRLHHVVVYFIQNQAPKKIIEKTLLEQFGDRNLSFDERCHNIMKVAQAKLEMIKPEEVNLEEYEEWHQDYRKFRETTMYLIIGLENFQRESYIDSLLFLICAYQNNKELLSKGLYRGHDEELISHYRRECLLKLNEQAAELFESGEDREVNNGLIIMNEFIVPFLPLLLVDEMEEKDILAVEDMRNRWCSYLGQEMEPHLQEKLTDFLPKLLDCSMEIKSFHEPPKLPSYSTHELCERFARIMLSLSRTPADGR
notes: tetrameric and dimeric populations; also called FLAG-tagged USP25; ectopically expressed wild-type USP25; source: HEK293, transfected (pOPINE), in lysate; not shown: Flag, N-terminal, kept
B2: Chimera: Human USP28 (149-[AIM of Human USP25]-703) (domain or fragment)
chain: PNPNDWRRVDGWPVGLKNVGNTCWFSAVIQSLFQLPEFRRLVLSYSLPQNVLENCRSHTEKRNIMFMQELQYLFALMMGSNRKFVDPSAALDLLKGAFRSSEEQQQDVSEFTHKLLDWLEDAFQLAVNVNSPRNKSENPMVQLFYGTFLTEGVREGKPFCNNETFGQYPLQVNGYRNLDECLEGAMVEGDVELLPSDHSVKYGQERWFTKLPPVLTFELSRFEFNQSLGQPEKIHNKLEFPQIIYMDRYMYRSKELIRNKRECIRKLKEEIKILQQKLERYVKYGSGPARFPLPDMLKYVIEFASTKPASESCPPESDTHMTLPLSSVHCSVSDQTSKESTSTESSSQDVESTFSSPEDRSVIHKPFTQSRIPMEMPSQPAPRTVTDEEINFVKTCLQRWRSEIEQDIQDLKTCIASTTQTIEQMYCDPLLRQVPYRLHAVLVHEGQANAGHYWAYIYNQPRQSWLKYNDISVTESSWEEVERDSYGGLRNVSAYCLMYINDKLPYFNAEAAPTESDQMSEVEALSVELKHYIQEDNWRFEQEVEEWEEEQSCKI
B3: Human USP25 (157-714) P521S F522E (domain or fragment, UniProt Q9UHP3 157-714, looked up)
chain: NPYDRKRQDKAPVGLKNVGNTCWFSAVIQSLFNLLEFRRLVLNYKPPSNAQDLPRNQKEHRNLPFMRELRYLFALLVGTKRKYVDPSRAVEILKDAFKSNDSQQQDVSEFTHKLLDWLEDAFQMKAEEETDEEKPKNPMVELFYGRFLAVGVLEGKKFENTEMFGQYPLQVNGFKDLHECLEAAMIEGEIESLHSENSGKSGQEHWFTELPPVLTFELSRFEFNQALGRPEKIHNKLEFPQVLYLDRYMHRNREITRIKREEIKRLKDYLTVLQQRLERYLSYGSGPKRFPLVDVLQYALEFASSKPVCTSPVDDIDASSPPSGSIPSQTLPSTTEQQGALSSELPSTSPSSVAAISSRSVIHKSETQSRIPPDLPMHPAPRHITEEELSVLESCLHRWRTEIENDTRDLQESISRIHRTIELMYSDKSMIQVPYRLHAVLVHEGQANAGHYWAYIFDHRESRWMKYNDIAVTKSSWEELVRDSFGGYRNASAYCLMYINDKAQFLIQEEFNKETGQPLVGIETLPPDLRDFVEEDNQRFEKELEEWDAQLAQKALQE
notes: source: E. coli Rosetta2(DE3)pLacI, purified (HisTrap, 3C protease, Resource Q, size exclusion)
B4: Human USP25 (157-714) F522A (domain or fragment, UniProt Q9UHP3 157-714, looked up)
chain: NPYDRKRQDKAPVGLKNVGNTCWFSAVIQSLFNLLEFRRLVLNYKPPSNAQDLPRNQKEHRNLPFMRELRYLFALLVGTKRKYVDPSRAVEILKDAFKSNDSQQQDVSEFTHKLLDWLEDAFQMKAEEETDEEKPKNPMVELFYGRFLAVGVLEGKKFENTEMFGQYPLQVNGFKDLHECLEAAMIEGEIESLHSENSGKSGQEHWFTELPPVLTFELSRFEFNQALGRPEKIHNKLEFPQVLYLDRYMHRNREITRIKREEIKRLKDYLTVLQQRLERYLSYGSGPKRFPLVDVLQYALEFASSKPVCTSPVDDIDASSPPSGSIPSQTLPSTTEQQGALSSELPSTSPSSVAAISSRSVIHKPATQSRIPPDLPMHPAPRHITEEELSVLESCLHRWRTEIENDTRDLQESISRIHRTIELMYSDKSMIQVPYRLHAVLVHEGQANAGHYWAYIFDHRESRWMKYNDIAVTKSSWEELVRDSFGGYRNASAYCLMYINDKAQFLIQEEFNKETGQPLVGIETLPPDLRDFVEEDNQRFEKELEEWDAQLAQKALQE
notes: as for B3
B5: Human USP25 (157-714) Q524S (domain or fragment, UniProt Q9UHP3 157-714, looked up)
chain: NPYDRKRQDKAPVGLKNVGNTCWFSAVIQSLFNLLEFRRLVLNYKPPSNAQDLPRNQKEHRNLPFMRELRYLFALLVGTKRKYVDPSRAVEILKDAFKSNDSQQQDVSEFTHKLLDWLEDAFQMKAEEETDEEKPKNPMVELFYGRFLAVGVLEGKKFENTEMFGQYPLQVNGFKDLHECLEAAMIEGEIESLHSENSGKSGQEHWFTELPPVLTFELSRFEFNQALGRPEKIHNKLEFPQVLYLDRYMHRNREITRIKREEIKRLKDYLTVLQQRLERYLSYGSGPKRFPLVDVLQYALEFASSKPVCTSPVDDIDASSPPSGSIPSQTLPSTTEQQGALSSELPSTSPSSVAAISSRSVIHKPFTSSRIPPDLPMHPAPRHITEEELSVLESCLHRWRTEIENDTRDLQESISRIHRTIELMYSDKSMIQVPYRLHAVLVHEGQANAGHYWAYIFDHRESRWMKYNDIAVTKSSWEELVRDSFGGYRNASAYCLMYINDKAQFLIQEEFNKETGQPLVGIETLPPDLRDFVEEDNQRFEKELEEWDAQLAQKALQE
notes: as for B3
B6: Human USP25 (157-714) P521A (domain or fragment, UniProt Q9UHP3 157-714, looked up)
chain: NPYDRKRQDKAPVGLKNVGNTCWFSAVIQSLFNLLEFRRLVLNYKPPSNAQDLPRNQKEHRNLPFMRELRYLFALLVGTKRKYVDPSRAVEILKDAFKSNDSQQQDVSEFTHKLLDWLEDAFQMKAEEETDEEKPKNPMVELFYGRFLAVGVLEGKKFENTEMFGQYPLQVNGFKDLHECLEAAMIEGEIESLHSENSGKSGQEHWFTELPPVLTFELSRFEFNQALGRPEKIHNKLEFPQVLYLDRYMHRNREITRIKREEIKRLKDYLTVLQQRLERYLSYGSGPKRFPLVDVLQYALEFASSKPVCTSPVDDIDASSPPSGSIPSQTLPSTTEQQGALSSELPSTSPSSVAAISSRSVIHKAFTQSRIPPDLPMHPAPRHITEEELSVLESCLHRWRTEIENDTRDLQESISRIHRTIELMYSDKSMIQVPYRLHAVLVHEGQANAGHYWAYIFDHRESRWMKYNDIAVTKSSWEELVRDSFGGYRNASAYCLMYINDKAQFLIQEEFNKETGQPLVGIETLPPDLRDFVEEDNQRFEKELEEWDAQLAQKALQE
notes: as for B3
B7: Human USP25 (157-714) F522L (domain or fragment, UniProt Q9UHP3 157-714, looked up)
chain: NPYDRKRQDKAPVGLKNVGNTCWFSAVIQSLFNLLEFRRLVLNYKPPSNAQDLPRNQKEHRNLPFMRELRYLFALLVGTKRKYVDPSRAVEILKDAFKSNDSQQQDVSEFTHKLLDWLEDAFQMKAEEETDEEKPKNPMVELFYGRFLAVGVLEGKKFENTEMFGQYPLQVNGFKDLHECLEAAMIEGEIESLHSENSGKSGQEHWFTELPPVLTFELSRFEFNQALGRPEKIHNKLEFPQVLYLDRYMHRNREITRIKREEIKRLKDYLTVLQQRLERYLSYGSGPKRFPLVDVLQYALEFASSKPVCTSPVDDIDASSPPSGSIPSQTLPSTTEQQGALSSELPSTSPSSVAAISSRSVIHKPLTQSRIPPDLPMHPAPRHITEEELSVLESCLHRWRTEIENDTRDLQESISRIHRTIELMYSDKSMIQVPYRLHAVLVHEGQANAGHYWAYIFDHRESRWMKYNDIAVTKSSWEELVRDSFGGYRNASAYCLMYINDKAQFLIQEEFNKETGQPLVGIETLPPDLRDFVEEDNQRFEKELEEWDAQLAQKALQE
notes: as for B3
B8: Chimera: Human USP25 (157-[AIM of Human USP28]-714) (domain or fragment)
chain: NPYDRKRQDKAPVGLKNVGNTCWFSAVIQSLFNLLEFRRLVLNYKPPSNAQDLPRNQKEHRNLPFMRELRYLFALLVGTKRKYVDPSRAVEILKDAFKSNDSQQQDVSEFTHKLLDWLEDAFQMKAEEETDEEKPKNPMVELFYGRFLAVGVLEGKKFENTEMFGQYPLQVNGFKDLHECLEAAMIEGEIESLHSENSGKSGQEHWFTELPPVLTFELSRFEFNQALGRPEKIHNKLEFPQVLYLDRYMHRNREITRIKREEIKRLKDYLTVLQQRLERYLSYGSGPKRFPLVDVLQYALEFASSKPVCTSPVDDIDASSPPSGSIPSQTLPSTTEQQGALSSELPSTSPSSVAAISSSLPKSKPLTSSRSSPDLPMHPAPRHITEEELSVLESCLHRWRTEIENDTRDLQESISRIHRTIELMYSDKSMIQVPYRLHAVLVHEGQANAGHYWAYIFDHRESRWMKYNDIAVTKSSWEELVRDSFGGYRNASAYCLMYINDKAQFLIQEEFNKETGQPLVGIETLPPDLRDFVEEDNQRFEKELEEWDAQLAQKALQE

Values joined by “and” are separate entries in the source; they are usually repeats but may differ in a detail not shown here. Equal entries are not always repeated.

What is called stoichiometry N is a count of units in the complex or per binding partner.

One data set concerns the molecule itself. Nature of the data set: native gel or EMSA; native PAGE of lysates of HEK293 cells transfected with FLAG- or HA-tagged proteins, immunoblotting; recombinant USP25 tetramer and dimer fractions as size standard. (Mobility shift assays separate free from complexed probe on a gel.)
Take B1: the “stoichiometry N” value was 4 and 2.

The next data set deals with the molecule itself. Kind of data set: SEC-MALS; 100 μL of 1-2 mg/mL protein on Superdex 200 10/300, 0.5 mL/min, PBS + 2 mM DTT. (In general: SEC sorts molecules by how far they enter the pores of the column.)
Consider B2, for which the “stoichiometry N” value amounted to 2.

For the protein B3, the “stoichiometry N” value turned out to be 2.

For the protein B4, the “stoichiometry N” value worked out at 2.

On to B5, for which the “stoichiometry N” value turned out to be 2.

Consider B6, for which the “stoichiometry N” value stood at 2.

As for B7, the “stoichiometry N” value amounted to 2.

For the protein B8, the “stoichiometry N” value was determined as 2.

For the origin of these results see publication PMC6509359 (Molecular Cell, 2019).
